Laboratory results as given in patent publication US20240287161A1 (NATIONAL UNIVERSITY CORPORATION TOTTORI UNIVERSITY, published 2024).

Columns and labels:
[1] = target: T1, HCoV-229E trimeric S protein (amino acids 12-1109) with T4 foldon, histidine tag and strep-tag (HCoV-229E, UniProt P15423 12-1112); experiment: ELISA on coated S-trimeric antigen, anti-human IgG-HRP [Human IgG3, NT-193]
T1 chain: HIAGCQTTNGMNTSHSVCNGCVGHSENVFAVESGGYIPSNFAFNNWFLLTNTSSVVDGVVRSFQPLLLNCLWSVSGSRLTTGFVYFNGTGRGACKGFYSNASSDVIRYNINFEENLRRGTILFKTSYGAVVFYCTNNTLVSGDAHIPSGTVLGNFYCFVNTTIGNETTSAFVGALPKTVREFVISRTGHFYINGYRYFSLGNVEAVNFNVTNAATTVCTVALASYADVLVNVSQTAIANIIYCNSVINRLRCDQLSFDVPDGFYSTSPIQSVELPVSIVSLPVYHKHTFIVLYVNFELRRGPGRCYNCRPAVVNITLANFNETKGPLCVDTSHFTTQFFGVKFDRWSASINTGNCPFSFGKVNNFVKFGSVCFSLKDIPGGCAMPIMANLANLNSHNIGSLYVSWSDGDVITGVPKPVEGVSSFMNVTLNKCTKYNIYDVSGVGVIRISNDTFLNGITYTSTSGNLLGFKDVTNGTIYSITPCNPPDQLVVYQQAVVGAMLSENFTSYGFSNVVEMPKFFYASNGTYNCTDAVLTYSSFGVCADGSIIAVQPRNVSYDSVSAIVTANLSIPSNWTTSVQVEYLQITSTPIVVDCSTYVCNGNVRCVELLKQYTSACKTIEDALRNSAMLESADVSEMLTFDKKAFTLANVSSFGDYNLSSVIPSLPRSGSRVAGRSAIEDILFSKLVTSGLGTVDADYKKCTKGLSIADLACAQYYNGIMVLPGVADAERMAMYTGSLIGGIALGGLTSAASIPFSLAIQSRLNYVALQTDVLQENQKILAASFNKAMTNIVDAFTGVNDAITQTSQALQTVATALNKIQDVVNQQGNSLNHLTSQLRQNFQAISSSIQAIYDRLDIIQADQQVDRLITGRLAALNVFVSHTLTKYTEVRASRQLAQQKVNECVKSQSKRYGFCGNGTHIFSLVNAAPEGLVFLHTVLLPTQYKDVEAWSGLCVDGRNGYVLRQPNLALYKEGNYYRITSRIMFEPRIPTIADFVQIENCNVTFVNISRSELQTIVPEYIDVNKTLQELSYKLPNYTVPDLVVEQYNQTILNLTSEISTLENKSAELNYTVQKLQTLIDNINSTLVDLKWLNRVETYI

[2] = target: T2, HCoV-HKU1 trimeric S protein (amino acids 13-1293) with T4 foldon, histidine tag and strep-tag (HCoV-HKU1, UniProt Q5MQD0 13-1297); experiment: as above
T2 sequence: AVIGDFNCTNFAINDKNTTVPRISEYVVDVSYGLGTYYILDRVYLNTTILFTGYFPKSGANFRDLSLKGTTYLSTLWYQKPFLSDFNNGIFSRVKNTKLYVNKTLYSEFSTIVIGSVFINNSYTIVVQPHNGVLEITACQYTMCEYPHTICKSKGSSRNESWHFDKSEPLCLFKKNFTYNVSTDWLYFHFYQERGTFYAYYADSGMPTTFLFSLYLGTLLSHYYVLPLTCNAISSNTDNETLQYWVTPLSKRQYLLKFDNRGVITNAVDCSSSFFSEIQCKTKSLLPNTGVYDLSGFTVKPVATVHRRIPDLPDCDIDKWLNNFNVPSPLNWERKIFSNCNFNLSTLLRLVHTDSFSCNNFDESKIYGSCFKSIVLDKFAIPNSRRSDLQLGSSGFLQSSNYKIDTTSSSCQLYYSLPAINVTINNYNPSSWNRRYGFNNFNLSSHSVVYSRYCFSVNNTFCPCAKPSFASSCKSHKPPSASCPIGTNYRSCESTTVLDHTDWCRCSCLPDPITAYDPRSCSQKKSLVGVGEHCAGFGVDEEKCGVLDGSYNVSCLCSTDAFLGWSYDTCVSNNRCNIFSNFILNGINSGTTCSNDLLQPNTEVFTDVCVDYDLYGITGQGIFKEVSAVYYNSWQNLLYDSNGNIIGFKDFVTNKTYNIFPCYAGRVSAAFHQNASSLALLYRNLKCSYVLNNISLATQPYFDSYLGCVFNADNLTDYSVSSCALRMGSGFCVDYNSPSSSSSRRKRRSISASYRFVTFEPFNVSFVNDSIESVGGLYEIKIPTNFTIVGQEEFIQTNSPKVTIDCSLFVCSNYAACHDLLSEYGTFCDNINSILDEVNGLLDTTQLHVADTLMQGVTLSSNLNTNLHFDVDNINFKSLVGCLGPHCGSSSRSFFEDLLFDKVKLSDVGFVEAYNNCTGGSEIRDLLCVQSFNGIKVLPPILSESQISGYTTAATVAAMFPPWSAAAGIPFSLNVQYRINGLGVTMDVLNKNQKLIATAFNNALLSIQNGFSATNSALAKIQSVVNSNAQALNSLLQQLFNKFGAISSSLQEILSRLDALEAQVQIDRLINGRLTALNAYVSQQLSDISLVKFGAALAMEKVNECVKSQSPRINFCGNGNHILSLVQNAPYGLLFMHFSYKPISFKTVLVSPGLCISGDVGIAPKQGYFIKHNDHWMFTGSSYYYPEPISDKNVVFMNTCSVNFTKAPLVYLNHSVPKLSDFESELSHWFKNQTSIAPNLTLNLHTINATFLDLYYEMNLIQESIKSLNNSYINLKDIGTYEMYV

B1: NT-193, human IgG3 subclass (antibody, V domains shown)
VH: EVQLQQWGAGLLKPSETLSLTCAVYGGSFSGYYWSWIRQPPGKGLEWIGEINHSGSTNYNPSLKSRVTISVDTSKNQFSLKLSSVTAADTAVYYCARGWDLDYYYGMDVWGQGTTVTVSS
VL: DIRMTQSPSAMSASVGDRVTVTCRASQGIGNYLAWFQLKPGKVPKRLIYAASSLQSGVPARFSGGGSGTEFTLTISSLQPEDFATYYCLQHGFLPWTFGQGTKLEIK
B1: no binding (tested: 1000 ng/ml) [1]; no binding (tested: 1000 ng/ml) [2].
